Target: EZH2 (endogenous) (human (endogenous in MDA-MB-231, …, UniProt Q15910 1-746))
Assay: co-IP

Sequence of EZH2 (endogenous) (human (Q15910 whole entry): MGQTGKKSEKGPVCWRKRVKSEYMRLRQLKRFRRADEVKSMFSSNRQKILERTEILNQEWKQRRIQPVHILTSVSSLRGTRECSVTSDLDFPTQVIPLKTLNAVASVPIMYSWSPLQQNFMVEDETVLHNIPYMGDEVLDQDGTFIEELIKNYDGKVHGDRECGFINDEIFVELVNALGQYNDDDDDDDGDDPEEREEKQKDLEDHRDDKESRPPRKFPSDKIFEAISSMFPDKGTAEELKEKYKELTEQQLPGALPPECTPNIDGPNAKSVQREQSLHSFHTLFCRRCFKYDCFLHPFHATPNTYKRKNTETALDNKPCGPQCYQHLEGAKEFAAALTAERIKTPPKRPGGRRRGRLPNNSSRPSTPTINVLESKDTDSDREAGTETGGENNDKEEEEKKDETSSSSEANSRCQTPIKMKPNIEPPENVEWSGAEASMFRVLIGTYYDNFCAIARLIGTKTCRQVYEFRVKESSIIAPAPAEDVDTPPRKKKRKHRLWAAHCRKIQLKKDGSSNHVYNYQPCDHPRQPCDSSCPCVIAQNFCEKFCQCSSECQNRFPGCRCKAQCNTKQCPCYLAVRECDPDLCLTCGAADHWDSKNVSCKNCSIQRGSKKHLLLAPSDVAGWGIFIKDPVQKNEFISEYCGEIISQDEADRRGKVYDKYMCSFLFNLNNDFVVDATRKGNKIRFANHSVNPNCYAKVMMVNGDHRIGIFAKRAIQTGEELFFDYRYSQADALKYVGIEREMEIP

B1: EED (endogenous) (natural protein)
chain: not shown
In the case of B1, the “fold binding with PARPi against without PARPi” value is reported as roughly 4.4 times.
